The values below come from patent US20200283521A1 (GRANULAR THERAPEUTICS, published 2020).

Like-named read-outs stand apart in the source and are kept apart here.

In one experiment the target is T1, hDR6-Fc (human, UniProt O75509).
T1 construct: Fc fusion; member of the panel m9
T1 sequence (looked up): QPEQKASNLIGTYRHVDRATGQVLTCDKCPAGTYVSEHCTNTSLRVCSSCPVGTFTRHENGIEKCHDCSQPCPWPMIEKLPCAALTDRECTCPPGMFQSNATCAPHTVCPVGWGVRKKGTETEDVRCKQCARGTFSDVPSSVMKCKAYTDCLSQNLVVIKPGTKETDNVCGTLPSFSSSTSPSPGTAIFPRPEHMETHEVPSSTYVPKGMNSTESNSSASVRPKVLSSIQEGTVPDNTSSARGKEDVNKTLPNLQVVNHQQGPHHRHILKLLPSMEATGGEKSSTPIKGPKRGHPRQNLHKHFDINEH
Description: direct ELISA on coated protein, IgG1.

In experiment [1] the target is T2, hVCAM-Fc.
T2 construct: member of the panel m9
T2 chain: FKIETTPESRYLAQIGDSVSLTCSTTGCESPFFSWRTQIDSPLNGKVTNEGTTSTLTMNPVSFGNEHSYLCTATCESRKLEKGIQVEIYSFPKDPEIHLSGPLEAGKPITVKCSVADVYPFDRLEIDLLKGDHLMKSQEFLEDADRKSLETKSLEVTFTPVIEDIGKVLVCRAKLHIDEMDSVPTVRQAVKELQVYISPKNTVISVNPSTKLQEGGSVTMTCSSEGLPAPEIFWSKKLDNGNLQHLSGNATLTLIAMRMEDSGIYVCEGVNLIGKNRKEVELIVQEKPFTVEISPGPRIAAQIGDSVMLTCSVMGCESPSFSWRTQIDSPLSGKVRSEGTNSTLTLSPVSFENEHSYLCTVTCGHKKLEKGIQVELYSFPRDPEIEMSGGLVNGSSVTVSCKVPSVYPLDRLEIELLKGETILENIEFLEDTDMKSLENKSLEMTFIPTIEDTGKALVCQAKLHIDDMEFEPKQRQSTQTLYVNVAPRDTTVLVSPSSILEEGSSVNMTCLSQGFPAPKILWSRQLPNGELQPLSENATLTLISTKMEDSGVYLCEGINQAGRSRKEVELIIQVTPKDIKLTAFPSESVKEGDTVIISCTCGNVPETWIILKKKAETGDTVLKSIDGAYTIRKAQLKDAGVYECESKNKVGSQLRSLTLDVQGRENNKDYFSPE
In words: direct ELISA on coated protein, IgG1.

The target in the next experiment is T3, hICAM-1-Fc (human, UniProt P05362).
T3 construct: Fc fusion; member of the panel m9
T3 sequence (P05362 28-480 limits assumed): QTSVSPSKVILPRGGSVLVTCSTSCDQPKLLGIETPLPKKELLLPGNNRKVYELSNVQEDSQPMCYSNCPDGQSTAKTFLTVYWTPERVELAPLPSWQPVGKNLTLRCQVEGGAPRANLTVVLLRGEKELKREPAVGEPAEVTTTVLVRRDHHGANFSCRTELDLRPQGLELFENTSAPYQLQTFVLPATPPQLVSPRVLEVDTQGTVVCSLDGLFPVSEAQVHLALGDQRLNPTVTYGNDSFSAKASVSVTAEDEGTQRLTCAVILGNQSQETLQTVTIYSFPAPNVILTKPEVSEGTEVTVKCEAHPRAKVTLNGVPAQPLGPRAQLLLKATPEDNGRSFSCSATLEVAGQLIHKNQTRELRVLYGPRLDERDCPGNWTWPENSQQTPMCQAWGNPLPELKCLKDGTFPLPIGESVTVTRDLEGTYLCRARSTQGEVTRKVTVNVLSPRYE
In words: direct ELISA on coated protein, IgG1.

The target in another experiment is T4, hLTBR-Fc (human, UniProt P36941).
T4 construct: Fc fusion; member of the panel m9
T4 sequence (P36941 28-227 limits assumed): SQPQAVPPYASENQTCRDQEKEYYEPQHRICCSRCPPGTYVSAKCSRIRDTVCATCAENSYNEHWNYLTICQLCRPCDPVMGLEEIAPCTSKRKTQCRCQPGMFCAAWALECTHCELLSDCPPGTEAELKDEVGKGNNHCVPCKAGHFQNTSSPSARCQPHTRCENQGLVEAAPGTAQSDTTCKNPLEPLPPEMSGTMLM
In words: direct ELISA on coated protein, IgG1. On the technique in general: ELISA stands for enzyme-linked immunosorbent assay.

The target in experiment [2] is T5, hCD4 (human, UniProt P01730).
T5 construct: purified recombinant protein; member of the panel m9
Description: direct ELISA on coated protein, IgG1.

The next experiment deals with T6, hVCAM-1 (human, UniProt P19320).
T6 construct: purified recombinant protein; member of the panel m9
T6 sequence (looked up): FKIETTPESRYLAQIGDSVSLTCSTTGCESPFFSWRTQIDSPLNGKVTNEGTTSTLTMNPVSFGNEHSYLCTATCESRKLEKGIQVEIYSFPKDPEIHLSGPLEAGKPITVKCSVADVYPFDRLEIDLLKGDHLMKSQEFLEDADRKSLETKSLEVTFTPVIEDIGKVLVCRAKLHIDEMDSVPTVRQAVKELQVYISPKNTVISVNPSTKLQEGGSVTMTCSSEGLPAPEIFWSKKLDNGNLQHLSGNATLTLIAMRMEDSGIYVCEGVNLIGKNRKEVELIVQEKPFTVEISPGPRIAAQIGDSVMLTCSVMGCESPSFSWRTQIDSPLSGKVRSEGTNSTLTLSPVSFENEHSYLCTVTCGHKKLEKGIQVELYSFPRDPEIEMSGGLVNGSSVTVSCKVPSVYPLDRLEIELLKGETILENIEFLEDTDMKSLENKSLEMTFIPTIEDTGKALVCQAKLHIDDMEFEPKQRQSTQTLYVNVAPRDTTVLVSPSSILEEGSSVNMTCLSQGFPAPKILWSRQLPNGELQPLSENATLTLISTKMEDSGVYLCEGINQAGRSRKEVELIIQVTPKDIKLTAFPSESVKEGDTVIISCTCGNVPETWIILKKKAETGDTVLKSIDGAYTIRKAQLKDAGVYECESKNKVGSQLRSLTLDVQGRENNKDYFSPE
Description: direct ELISA on coated protein, IgG1.

Experiment [3] concerns the target T7, hBAFFR-Fc (human, UniProt Q96RJ3).
T7 construct: Fc fusion; member of the panel m9
In words: direct ELISA on coated protein, IgG1.

For the next experiment, the target named is T8, hEpCAM-Fc (human, UniProt P16422).
T8 construct: Fc fusion; member of the panel m9
T8 sequence (looked up): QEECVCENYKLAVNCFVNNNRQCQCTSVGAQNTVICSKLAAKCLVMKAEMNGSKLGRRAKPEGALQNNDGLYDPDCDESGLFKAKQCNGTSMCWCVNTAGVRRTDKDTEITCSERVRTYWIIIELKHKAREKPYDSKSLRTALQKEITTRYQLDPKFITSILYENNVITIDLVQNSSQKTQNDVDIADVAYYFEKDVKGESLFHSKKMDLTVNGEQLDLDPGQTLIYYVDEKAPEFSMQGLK
Description: direct ELISA on coated protein, IgG1.

A further experiment concerns the target T9, hTWEAK-Fc (human, UniProt O43508).
T9 construct: Fc fusion; member of the panel m9
T9 sequence (looked up): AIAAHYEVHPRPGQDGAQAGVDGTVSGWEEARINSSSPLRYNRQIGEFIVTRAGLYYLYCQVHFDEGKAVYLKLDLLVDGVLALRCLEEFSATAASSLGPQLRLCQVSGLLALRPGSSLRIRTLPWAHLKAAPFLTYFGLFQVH
Description: direct ELISA on coated protein, IgG1.

In experiment [4] the target is T2, hVCAM-Fc. In words: direct ELISA on coated protein, IgG1.
Experiment [5] addresses T5, hCD4. In words: direct ELISA on coated protein, IgG1. The source holds these as a separate data set.
The target of experiment [6] is T7, hBAFFR-Fc. In words: direct ELISA on coated protein, IgG1. This is another data set of the same source.
In another experiment the target is T10, hDR3-Fc (human, UniProt Q93038).
T10 construct: Fc fusion; member of the panel m9
T10 sequence (looked up): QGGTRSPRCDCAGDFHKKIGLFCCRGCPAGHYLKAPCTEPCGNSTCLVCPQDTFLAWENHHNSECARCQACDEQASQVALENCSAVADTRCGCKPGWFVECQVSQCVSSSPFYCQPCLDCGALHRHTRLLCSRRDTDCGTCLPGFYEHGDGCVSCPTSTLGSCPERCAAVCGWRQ
Description: direct ELISA on coated protein, IgG1.

The target in experiment [7] is T11, cynomolgus monkey C-KIT-Fc (cynomolgus monkey).
T11 construct: also called cyno C-KIT-Fc
Description: direct titration ELISA on coated C-KIT-Fc, IgG1 format.
Description: Direct titration ELISA for IgG binding to human and cyno C-KIT-Fc proteins.
To coat Greiner Bio-One High bind ELISA plates, target proteins were diluted to 1 μg/ml in carbonate buffer and added at 100 μl per well, at 4° C., o/n. Coated plates were washed 3× with PBS pH7.4, blocked with 1% BSA in PBS (380 μl/well) for 1 hr at RT, then washed 3× with PBS-Tween 20 (PBST). C-KIT antibodies (100 μl/well; diluted in PBST) were then added and then incubated 1 hr at RT. Plates were then washed 3× with PBST and goat anti-human kappa chain-HRP added (100 μl/well) at RT, for 1 hr. Plates were then washed 3× with PBST and twice with PBS before the addition of 100 μl TMB per well. Reactions were stopped by adding 100 μl 2M H₂SO₄/well and OD was read on a plate reader at 450 nm.

T7 sequence (Q96RJ3 7-71 limits assumed): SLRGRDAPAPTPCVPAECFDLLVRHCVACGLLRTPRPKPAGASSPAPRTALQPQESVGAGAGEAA

B1: humanized h37M, human IgG1 (antibody, V domains shown)
VH: QVQLVQSGAEVKKPGASVKLSCKASGYTFTDYYINWVRQAPGKGLEWIARIYPGSGNTYYNEKFKGRATLTADKSTSTAYMQLSSLRSEDTAVYFCARGVYYFDYWGQGTTVTVSS
VL: DIVMTQSPSSLSASVGDRVTITCKASQNVRTNVAWYQQKPGKAPKALIYSASYRYSGVPDRFTGSGSGTDFTLTISSLQPEDFADYFCQQYNSYPRTFGGGTKVEIK
notes: human IgG1; terbium-labelled as the tracer of the HTRF assays; also called C-KIT-h37M; h37M-IgG1
As to B1, the binding result in the experiment with hDR6-Fc, with hVCAM-Fc [1], with hICAM-1-Fc, in the experiment with hLTBR-Fc, in the experiment with hCD4 [2] and with hVCAM-1 was “no binding (tested: 1 µg/ml)” throughout. For the same molecule, the binding result with hBAFFR-Fc [3], with hEpCAM-Fc and in the experiment with hTWEAK-Fc was “no binding (tested: 1 µg/ml)” in each case.

B2: MH5, human IgG1 (antibody, V domains shown)
VH: QVQLVQSGAEVKKPGASVKVSCKASGYTFTDYYMNWVRQAPGQGLEWMGRIYPGSGNTYYAQKFQGRVTMTRDTSTSTVYMELSSLRSEDTAVYYCARGVYYYDYWGQGTLVTVSS
VL: DIQMTQSPSSLSASVGDRVTITCRASQGIRTNLAWFQQKPGKAPKSLIYSASSLQSGVPSRFSGSGSGTDFTLTISSLQPEDFATYYCQQYANYPRTFGGGTKVEIK
notes: IgG1; also called C-KIT-MH5; C-KIT-MHS
For B2, the binding result with hVCAM-Fc [4], with hCD4 [5], with hBAFFR-Fc [6] and with hDR3-Fc was “no binding (tested: 1 µg/ml)” each time. For the same molecule, the “EC50 (read off the curve)” value in [7] was roughly 0.1 µg/mL.

As usually defined, the EC50 (read off the curve) is the midpoint of the concentration-response curve.
